Drawing on patent US20130058939A1, this text covers % of abluminal alteplase (zymography assay; alteplase alone = 100), in vitro BBB model (% of abluminal alteplase alone) and alteplase (% of passage versus filter), spectrozyme assay, in vitro BBB model for four substances.

The target in this assay is low-density lipoprotein (LDL) receptor-related protein (LRP) on bovine brain capillary endothelial cells of the in vitro BBB model (bovine). The assay is described as follows: cell-based or functional assay. The note with it: for alteplase (% of passage versus filter), spectrozyme assay, in vitro BBB model: scale: % of passage versus filter for alteplase alone.

DSPAα1 (Desmoteplase), sequence (P98119 37-477 limits assumed): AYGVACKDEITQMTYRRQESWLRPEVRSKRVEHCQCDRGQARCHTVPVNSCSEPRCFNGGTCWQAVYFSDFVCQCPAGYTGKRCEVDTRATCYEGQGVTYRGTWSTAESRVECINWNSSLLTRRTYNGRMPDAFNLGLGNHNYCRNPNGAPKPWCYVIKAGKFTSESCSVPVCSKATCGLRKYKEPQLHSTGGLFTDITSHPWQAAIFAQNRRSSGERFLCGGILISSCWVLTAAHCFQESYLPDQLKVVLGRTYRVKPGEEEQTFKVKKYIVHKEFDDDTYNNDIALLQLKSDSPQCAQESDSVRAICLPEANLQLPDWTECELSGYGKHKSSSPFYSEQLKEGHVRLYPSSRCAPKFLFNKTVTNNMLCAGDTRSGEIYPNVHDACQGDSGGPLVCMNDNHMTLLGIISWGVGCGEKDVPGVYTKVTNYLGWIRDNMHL
clogged Desmoteplase (cDSPA), DSPA alpha 1 inactivated with D-phenyl-prolyl-arginine chloromethyl ketone, sequence (P98119 37-477 limits assumed): as above
DSPA α2 (alpha 2), sequence (P15638 37-477 limits assumed): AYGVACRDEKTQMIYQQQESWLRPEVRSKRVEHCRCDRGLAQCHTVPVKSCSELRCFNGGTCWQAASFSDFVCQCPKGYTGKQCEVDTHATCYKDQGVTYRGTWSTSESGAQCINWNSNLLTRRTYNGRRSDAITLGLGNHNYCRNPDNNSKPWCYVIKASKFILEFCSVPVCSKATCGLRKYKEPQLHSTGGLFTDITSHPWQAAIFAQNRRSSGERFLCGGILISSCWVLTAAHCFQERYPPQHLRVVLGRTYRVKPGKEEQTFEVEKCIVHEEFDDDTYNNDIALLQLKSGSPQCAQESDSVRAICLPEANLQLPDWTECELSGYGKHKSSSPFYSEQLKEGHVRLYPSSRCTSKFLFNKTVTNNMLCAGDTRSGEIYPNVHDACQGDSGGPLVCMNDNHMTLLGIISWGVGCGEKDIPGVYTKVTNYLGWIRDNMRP

With “DSPA α2 (alpha 2) (from UniProt P15638 37-477) (enzyme)”, the % of abluminal alteplase (zymography assay; alteplase alone = 100), in vitro BBB model (% of abluminal alteplase alone) was found to be 25.1 and the alteplase (% of passage versus filter), spectrozyme assay, in vitro BBB model turned out to be 61.9.

As for “DSPAα1 (Desmoteplase) (from UniProt P98119 37-477) (enzyme)”, the % of abluminal alteplase (zymography assay; alteplase alone = 100), in vitro BBB model (% of abluminal alteplase alone) is 46.6 and the alteplase (% of passage versus filter), spectrozyme assay, in vitro BBB model worked out at 67.

Reteplase (Rapilysin) (enzyme) had a % of abluminal alteplase (zymography assay; alteplase alone = 100), in vitro BBB model (% of abluminal alteplase alone) of 51.6.

In the case of “clogged Desmoteplase (cDSPA), DSPA alpha 1 inactivated with D-phenyl-prolyl-arginine chloromethyl ketone (from UniProt P98119 37-477) (enzyme)”, the % of abluminal alteplase (zymography assay; alteplase alone = 100), in vitro BBB model (% of abluminal alteplase alone) came out at 73.3 and the alteplase (% of passage versus filter), spectrozyme assay, in vitro BBB model stood at 76.3.
